Here are results for 5 molecules from patent US20210403527A1 (Regeneron, published 2021).

What all share (assay): cell-based or functional assay
The target of assay [1] is HLA-A2/NY-ESO-1 (157-165) complex on cells (human).
The target is the same in assay [2]. This is another data set of the same source.
For assay [3], the target named is single chain HLA-A2 presenting an NY-ESO-1 (157-165) peptide, overexpressed on IM9 cells.

Numbering of substitutions follows the chain as printed.

B1: TCR050 (TCR, V domains shown)
V domain 1: DAKTTQPNSMESNEEEPVHLPCNHSTISGTDYIHWYRQLPSQGPEYVIHGLTSNVNNRMASLAIAEDRKSSTLILHRATLRDAAVYYCILREGNNDMRFGAGTRLTVKP
V domain 2: NAGVTQTPKFRILKIGQSMTLQCAQDMNHNYMYWYRQDPGMGLKLIYYSVGAGITDKGEVPNGYNVSRSTTEYFPLRLELAAPSQTSVYFCASSWTDNQPQHFGDGTRLSIL
As to B1, the “Signal to Noise (S/N) ratio (RLU to peptide pulsed APCs divided by RLU to non-pulsed APCs), AP-1 luciferase reporter T cells” value in assay [1] amounted to 15.5 ratio.

B2: TCR188 (TCR, V domains shown)
V domain 1: DAKTTQPNSMESNEEEPVHLPCNHSTISGTDYIHWYRQLPSQGPEYVIHGLTSNVNNRMASLAIAEDRKSSTLILHRATLRDAAVYYCILNTGTASKLTFGTGTRLQVTL
V domain 2: GAVVSQHPSWVICKSGTSVKIECRSLDFQATTMFWYRQFPKQSLMLMATSNEGSKATYEQGVEKDKFLINHASLTLSTLTVTSAHPEDSSFYICSAKEGTEAFFGQGTRLTVV
For the molecule B2, the “Signal to Noise (S/N) ratio (RLU to peptide pulsed APCs divided by RLU to non-pulsed APCs), AP-1 luciferase reporter T cells” value in assay [1] was found to be 5.1 ratio.

B3: composite TCR 001 (human variable domains, mouse constant domains) (TCR, V domains shown)
V domain 1: DAKTTQPNSMESNEEEPVHLPCNHSTISGTDYIHWYRQLPSQGPEYVIHGLTSNVNNRMASLAIAEDRKSSTLILHRATLRDAAVYYCILRPDSWGKFQFGAGTQVVVTP
V domain 2: NAGVTQTPKFRILKIGQSMTLQCAQDMNHNYMYWYRQDPGMGLKLIYYSVGAGITDKGEVPNGYNVSRSTTEYFPLRLELAAPSQTSVYFCASSYSGGSPLHFGNGTRLTVTE
With B3, in assay [2], the “percent cytotoxicity (calcein release), IM-9 target cells, T cell:target cell ratio 0.78, Mean” value is 8.3%; the “percent cytotoxicity (calcein release), IM-9 target cells, T cell:target cell ratio 1.56, Mean” value was 16.2%; the “percent cytotoxicity (calcein release), IM-9 target cells, T cell:target cell ratio 3.125, Mean” value was 28.9%; the “percent cytotoxicity (calcein release), IM-9 target cells, T cell:target cell ratio 6.25, Mean” value is 44.4%. For the same molecule, in assay [2], the “percent cytotoxicity (calcein release), IM-9 target cells, T cell:target cell ratio 12.5, Mean” value was 55.6%; the “percent cytotoxicity (calcein release), IM-9 target cells, T cell:target cell ratio 25, Mean” value was 65.4%; the “percent cytotoxicity (calcein release), IM-9 target cells, T cell:target cell ratio 50, Mean” value is 72.6%. Moreover, in assay [3], the “percent cytotoxicity (calcein release), IM-9++ target cells, T cell:target cell ratio 0.78, Mean” value was 13.3%; the “percent cytotoxicity (calcein release), IM-9++ target cells, T cell:target cell ratio 1.56, Mean” value is 25.6%; the “percent cytotoxicity (calcein release), IM-9++ target cells, T cell:target cell ratio 3.125, Mean” value was 43.6%; the “percent cytotoxicity (calcein release), IM-9++ target cells, T cell:target cell ratio 6.25, Mean” value is 57.3%. For the same molecule, in assay [3], the “percent cytotoxicity (calcein release), IM-9++ target cells, T cell:target cell ratio 12.5, Mean” value is 65.9%; the “percent cytotoxicity (calcein release), IM-9++ target cells, T cell:target cell ratio 25, Mean” value was 68.7%; the “percent cytotoxicity (calcein release), IM-9++ target cells, T cell:target cell ratio 50, Mean” value is 70%.

B4: TCR001 (TCR, V domains shown)
V domain 1: B3 V domain 1
V domain 2: B1 V domain 2 with W95Y, T96S, D97G, N98G, Q99S, Q101L, D105N, S110T, I111V, L112T
As for B4, the “Signal to Noise (S/N) ratio (RLU to peptide pulsed APCs divided by RLU to non-pulsed APCs), AP-1 luciferase reporter T cells” value in assay [1] worked out at 25.4 ratio.

B5: TCR063 (TCR, V domains shown)
V domain 1: QKEVEQNSGPLSVPEGAIASLNCTYSDRGSQSFFWYRQYSGKSPELIMSIYSNGDKEDGRFTAQLNKASQYVSLLIRDSQPSDSATYLCAVNILASGGSYIPTFGRGTSLIVHP
V domain 2: ETGVTQTPRHLVMGMTNKKSLKCEQHLGHNAMYWYKQSAKKPLELMFVYNFKEQTENNSVPSRFSPECPNSSHLFLHLHTLQPEDSALYLCASSHGTGYNYGYTFGSGTRLTVV
Turning to B5, the “Signal to Noise (S/N) ratio (RLU to peptide pulsed APCs divided by RLU to non-pulsed APCs), AP-1 luciferase reporter T cells” value in assay [1] is 11.2 ratio.
